Consider 14 molecules from US20250257130A1 (NONA BIOSCIENCES SUZHOU, published 2025).

Substitutions are numbered along the chain they refer to.

Assay [1] deals with T1, human ROR1 on cells (HEK293T-hROR1, PANC-1, A549) (human, UniProt Q01973 30-937).
T1 construct: whole, on cells; one molecule for the three cell lines; also called huROR1; cell surface ROR1
The assay is described as follows: flow cytometry, PANC-1 cells. The procedure: (§1) In brief, anti-ROR1 antibodies were serially diluted in staining buffer (PBS containing 2% FBS). Antibody solution was incubated with 1×10⁵ cells at 4° C. for 1 hour. […] After 1-hour incubation at 4° C., cells were washed twice with staining buffer and subjected to flow cytometry. PR000374 (Bench marker 1) and non-relevant IgG isotype control (Crownbio) were used as positive and negative controls, respectively.
Binding activity of the variants to PANC-1 cells were tested using the same method described in example 5.1. The results were shown in FIGS. 7-8 and Table 11 and Table 12.
(In flow cytometry, cells or beads pass a laser one at a time.)

Assay [2] deals with T1, human ROR1 on cells (HEK293T-hROR1, …). The assay is described as follows: flow cytometry on PANC-1 cells, MFI (Median-APC) [top panel].
For assay [3] the target is unchanged. The assay is described as follows: flow cytometry on PANC-1 cells, MFI (Median-APC) [bottom panel, letter not given].
Assay [4] has the same target. The assay is described as follows: flow cytometry on PANC-1 cells, MFI (Median-APC) [middle panel, letter not given].
Assay [5] has the same target. The assay is described as follows: flow cytometry on PANC-1 cells, MFI (FITC-A Median). The procedure: (§2) Binding of recombinant anti-ROR1 antibodies to human or cynomolgus ROR1-overexpressing cells was tested by flow cytometry. In this example, ROR1-expressing cell lines are HEK293T cell lines that had been transfected to express human ROR1 on the surface (HEK293T-hu ROR1, KYINNO BIOTECHNOLOGY CO., LTD, Catalog #KC-1018), CHO-K1 cell lines that had been transfected to express cynomolgus ROR1 (CHOK1-cyno ROR1), PANC-1 (ATCC, catalog: CRL-1469) or A549 cell lines (Shanghai Institute of Biochemistry and Cell Biology, Chinese Academy of Sciences).
as §1

Assay [6] has as its target T2, cynomolgus ROR1 on CHO-K1-cynoROR1 cells (cynomolgus monkey, UniProt A0A2K5WTX7 30-937).
T2 construct: whole, on cells
The assay is described as follows: flow cytometry, CHO-K1-cynoROR1 cells. The procedure:
as §2, §1

Assay [7] concerns the target T1, human ROR1 on cells (HEK293T-hROR1, …). The assay is described as follows: flow cytometry, PANC-1 cells. The procedure:
as §1
This is another data set of the same source.

Assay [8] shares this target. The assay is described as follows: flow cytometry, HEK293T-hROR1 cells. The procedure:
as §1

Assay [9] shares this target. The assay is described as follows: flow cytometry, A549 cells. The protocol:
as §1

In assay [10] the target is T3, Human ROR1-ECD-his (Acro Biosystems RO1-H522y) (human, UniProt Q01973 30-406).
T3 construct: extracellular domain; bought protein; also called hROR1-ECD-his; hu-ROR1-ECD-his
T3 sequence (Q01973 30-406): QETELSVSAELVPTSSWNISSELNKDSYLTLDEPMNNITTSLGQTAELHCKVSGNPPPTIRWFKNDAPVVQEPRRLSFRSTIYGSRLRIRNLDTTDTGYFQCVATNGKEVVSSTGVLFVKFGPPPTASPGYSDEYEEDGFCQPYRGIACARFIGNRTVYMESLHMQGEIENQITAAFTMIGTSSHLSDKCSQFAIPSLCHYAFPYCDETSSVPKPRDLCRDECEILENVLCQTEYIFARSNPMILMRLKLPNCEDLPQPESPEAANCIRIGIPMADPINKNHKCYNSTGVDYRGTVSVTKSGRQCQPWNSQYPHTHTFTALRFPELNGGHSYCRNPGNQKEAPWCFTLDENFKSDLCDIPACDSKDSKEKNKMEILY
The assay is described as follows: ELISA, coated hu-ROR1-ECD-his. The procedure:
(§3) Binding of recombinant anti-ROR1 antibodies to hu-ROR1-ECD-his was tested by ELISA. In brief, 1 μg/mL hu-ROR1-ECD-his was added to the 96-well plate, 100 μL each well, incubated at 4° C. overnight, washing the plates with 1×PBST 3 times, 300 ul/well, blocking the plates with 2% BSA in 1×PBST, 200 ul/well at 37° C. for 1 hour, anti-ROR1 antibodies were serially diluted in staining buffer (PBS containing 2% BSA). Antibody solution was added to the plate and incubates at 37° C. for 1 hour, washing the plates with 1×PBST 3 times, 300 ul/well, adding secondary antibody 100 ul/well and incubate at 37° C. for 1 hour, washing the plates with 1×PBST 3 times, 300 ul/well and then add 100 ul/well TMB for about 5 min, stop the reaction by adding 100 ul/well 2M H₂SO₄, read the plates with Molecular device spectra max plus384 at 450 nm and 570 nm.

For assay [11], the target named is T4, hu-ROR2-ECD-his (Acrobiosystems RO2-H52E5) (human, UniProt Q01974 34-403).
T4 construct: extracellular domain; bought protein; also called Human ROR2 his-tagged protein; Human ROR2, His Tag
T4 sequence (Q01974 34-403): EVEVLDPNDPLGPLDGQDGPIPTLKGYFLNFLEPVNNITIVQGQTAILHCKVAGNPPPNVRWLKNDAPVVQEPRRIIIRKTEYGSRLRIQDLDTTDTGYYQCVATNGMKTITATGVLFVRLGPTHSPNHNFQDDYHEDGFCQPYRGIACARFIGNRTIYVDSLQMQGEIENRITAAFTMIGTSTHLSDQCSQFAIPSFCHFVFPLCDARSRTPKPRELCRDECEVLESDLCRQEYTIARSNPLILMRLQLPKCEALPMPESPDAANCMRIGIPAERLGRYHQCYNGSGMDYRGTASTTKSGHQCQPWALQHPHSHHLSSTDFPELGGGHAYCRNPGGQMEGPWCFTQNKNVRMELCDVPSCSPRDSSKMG
The assay is described as follows: ELISA, plate coated with hu-ROR2-his at 1 µg/mL. The protocol:
as §3, with “1” for “Binding of recombinant anti-ROR1 antibodies to hu-ROR1-ECD-his was tested by ELISA. In brief, 1”, “hu-ROR2-ECD-his (Acrobiocystems, RO2-H52E5)” for “hu-ROR1-ECD-his”
(In general: In an ELISA, binding on a coated surface is turned into a signal by an enzyme label.)

Assay [12] concerns the target T1, human ROR1 on cells (HEK293T-hROR1, …). The assay is described as follows: flow cytometry on HEK293T-hROR1 cells, MFI (Mean). The procedure:
as §2, §1

The target in assay [13] is T2, cynomolgus ROR1 on CHO-K1-cynoROR1 cells. The assay is described as follows: flow cytometry, CHO-K1-cynoROR1 cells. The protocol:
as §1
The source holds these as a separate data set.

Assay [14] has as its target T3, Human ROR1-ECD-his (Acro Biosystems …). The assay is described as follows: BLI, ROR1-His on HIS1K sensor, antibody in solution. The procedure: In the example, binding kinetics of anti-ROR1 antibodies to soluble ROR1 protein were analyzed by using Bio-Layer Interferometry (BLI) analysis on Fortebio Octet Red384 instrument (Fortebio).
In BLI analysis, recombinant anti-ROR1 antibodies was serially diluted with 10× kinetics buffer (Fortebio). Human ROR1-His proteins were diluted to 20 nM. Then the diluted antibodies, ROR1 proteins and regeneration buffer (10 mM glycine HCl pH 1.5) were added to 96-well plates (Greiner). Rate constants for association and dissociation were measured using HIS1K sensor (Fortebio). The sensor surface was regenerated after each binding experiment with regeneration buffer. The traces were processed using Octet Data Analysis Software (version 11.0, Pall ForteBio, CA, USA).
(BLI is a label-free optical method that tracks binding on a fibre tip over time.)

The target is the same in assay [15]. The assay is described as follows: ELISA, plate coated with hu-ROR1-his at 1 µg/mL. The protocol:
as §3

For assay [16], the target named is T2, cynomolgus ROR1 on CHO-K1-cynoROR1 cells. The assay is described as follows: flow cytometry on CHOK1-cynoROR1 cells, MFI (Mean) [bottom panel, letter not given]. The protocol: as §2, §1

T1 sequence (Q01973 30-937): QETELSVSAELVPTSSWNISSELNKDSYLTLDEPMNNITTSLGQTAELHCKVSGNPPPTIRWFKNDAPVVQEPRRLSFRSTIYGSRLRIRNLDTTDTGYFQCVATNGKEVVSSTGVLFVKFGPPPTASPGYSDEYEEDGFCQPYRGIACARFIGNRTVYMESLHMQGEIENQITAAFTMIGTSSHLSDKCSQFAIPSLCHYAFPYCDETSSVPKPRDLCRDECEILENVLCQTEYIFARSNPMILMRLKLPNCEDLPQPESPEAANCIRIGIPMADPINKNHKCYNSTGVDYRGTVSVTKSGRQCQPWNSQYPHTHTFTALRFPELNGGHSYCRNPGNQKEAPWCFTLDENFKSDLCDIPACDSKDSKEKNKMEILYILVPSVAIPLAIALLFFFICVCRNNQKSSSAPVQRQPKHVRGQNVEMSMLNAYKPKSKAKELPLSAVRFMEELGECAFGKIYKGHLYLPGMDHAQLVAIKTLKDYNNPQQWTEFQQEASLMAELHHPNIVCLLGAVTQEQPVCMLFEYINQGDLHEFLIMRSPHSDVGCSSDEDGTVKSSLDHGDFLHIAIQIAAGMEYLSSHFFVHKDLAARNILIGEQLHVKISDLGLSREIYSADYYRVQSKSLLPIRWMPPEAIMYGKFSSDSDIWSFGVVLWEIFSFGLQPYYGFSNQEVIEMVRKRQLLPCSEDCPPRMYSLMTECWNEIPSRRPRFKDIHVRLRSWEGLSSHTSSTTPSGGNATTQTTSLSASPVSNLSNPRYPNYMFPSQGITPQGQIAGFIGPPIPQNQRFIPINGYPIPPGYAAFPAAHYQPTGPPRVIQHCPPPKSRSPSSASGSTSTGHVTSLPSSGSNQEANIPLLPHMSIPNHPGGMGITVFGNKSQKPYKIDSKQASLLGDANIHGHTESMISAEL

B1: PR007411 (antibody, V domains shown)
VH: EVQLVESGGGLVKPGGSLRLSCAASGFTFSDFYMSWIRQAPGKGLEWISYISSSGSTIHYADSVKGRFTISRDNAKNSLYLQMNSLRAEDTAIYYCARDMPSSSSDWVDLQFDYWGQGTLVTVSS
notes: bivalent form (HCAb) variant of PR005340, no light chain
In general, EC50 (read off the curve) refers to the concentration at which the effect is half-maximal. Low values mean higher potency in that assay, high ones lower potency in that assay. Regarding B1, in assay [1], the TOP was found to be 81400. In addition, the “EC50 (read off the curve)” value in [2] is about 0.7 nM.

B2: PR007420 (antibody, V domains shown)
VH: B1 VH with I58R, H59Y, D109S
notes: as for B1
B2: in [1], the TOP is 79500. In assay [3], the concentration giving a half-maximal response (EC50 (read off the curve)) was about 0.7 nM.

B3: PR007419 (antibody, V domains shown)
VH: B1 VH with S52N, S53T, S54R, T57P, H59G, D109S
notes: as for B1
On to B3, for which the TOP in assay [1] was 75700. Moreover, in assay [3], the half-maximal effective concentration (EC50 (read off the curve)) was about 0.8 nM.

B4: PR007418 (antibody, V domains shown)
VH: B1 VH with S52D, S56R, T57P, I58L, H59A, M100I
notes: as for B1
B4 registered a TOP in assay [1] of 81300. The “EC50 (read off the curve)” value in assay [4] is about 0.4 nM.

B5: PR007416 (antibody, V domains shown)
VH: B1 VH with S52N, S53T, S54R, T57P, H59G, M100I
notes: as for B1
With B5, the TOP in [1] stood at 87600. Besides, the “EC50 (read off the curve)” value in assay [4] was about 0.7 nM.

B6: PR007412 (antibody, V domains shown)
VH: B1 VH with T57W, D109S
notes: as for B1
For B6, the TOP in [1] worked out at 77200. Further, the concentration for a half-maximal effect (EC50 (read off the curve)) in assay [2] was about 0.5 nM.

B7: PR007409 (antibody, V domains shown)
VH: B1 VH with T57W, M100I
notes: as for B1
In turn, B7 yielded a TOP in assay [1] of 87400. Moreover, the “EC50 (read off the curve)” value in assay [2] is about 0.8 nM.

B8: PR007410 (antibody, V domains shown)
VH: B1 VH with T57Y, M100I
notes: as for B1
The molecule B8 returned a TOP in assay [1] of 80300. Besides, the concentration giving a half-maximal response (EC50 (read off the curve)) in assay [2] was about 0.8 nM.

B9: PR007422 (antibody, V domains shown)
VH: B1 VH with S52D, S56R, T57P, I58L, H59A, M100I, D109S
notes: as for B1
Regarding B9, in assay [1], the TOP was found to be 73600. Moreover, the “EC50 (read off the curve)” value in [3] is about 0.6 nM.

B10: PR007423 (antibody, V domains shown)
VH: B1 VH with F32Y, S52D, S56R, T57P, I58L, H59A, M100I
notes: as for B1
In assay [1], B10 yielded a TOP of 74500. Further, in [3], the half-maximal effective concentration (EC50 (read off the curve)) was about 0.4 nM.

B11: PR007408 (antibody, V domains shown)
VH: B1 VH with T57Y
notes: as for B1
With B11, the TOP in [1] was 87000. Also, in [2], the concentration giving a half-maximal response (EC50 (read off the curve)) is about 0.4 nM.

B12: PR005351 (antibody, human IgG1, V domains shown)
VH: QVQLVESGGGLVKPGGSLRLSCAASGFKLSDFQMSWIRQAPGKGLEWVAYIDTNGSTRYYAESVKGRFTLSRDNVKNSLNLQMNGLRAEDTALYYCARIPSYTSSWYEDFDHWGQGTLVTVSS
notes: HCAb (heavy chain-only, human IgG1 Fc), no light chain
As to B12, the “EC50 (read off the curve)” value in [5] is about 20 nM. The Max in [6] was 27500; in assay [7] it was 10900.

B13: PR303147 (antibody, human IgG1, V domains shown)
VH: EVQLVESGGGLVQPGGSLRLSCAASGFTFSNFWMYWVRQAPGKGLVWVSRINSDGSSTNYADSVKGRFTISRDNAKNTLYLQMNSLRVEDTAVYSCAREGSGWYEDFDYWGQGTLVTVSS
notes: as for B12
By EC50 is commonly meant the concentration giving half of the maximal effect. Low values mean greater potency, high ones weaker potency. In general, Kd refers to a measure of binding affinity in units of concentration. Higher therefore signals a looser complex. As a reminder, the koff is the rate constant with which the complex falls apart. The term kon denotes the second-order rate constant of association. Low values mean slow association, high ones fast association. As to B13, the EC50 in [8] came to 0.325 µg/mL; in assay [9] it was 6.46 µg/mL; in assay [10] it was 0.023 µg/mL; in assay [13], 1.26 µg/mL; in [7], 7.77 µg/mL. For the same molecule, the “MAX(MFI)” value in assay [8] stood at 1.46e+07 MFI; in assay [9] it was 412000 MFI; in assay [13], 3.67e+06 MFI; in assay [7], 291000 MFI. The binding result in assay [11] is reported as “no binding (tested: about 15 µg/ml)”. The “EC50 (read off the curve)” value was about 0.3 µg/mL in assay [12] and about 0.02 µg/mL in assay [15]. In assay [14], this molecule gave a Kd of 11.2 nM. This molecule also gave a koff in [14] of 0.0165 s⁻¹. In assay [14], the on-rate (kon) was determined as 1.47e+06 M⁻¹ s⁻¹.

B14: PR303201 (antibody, human IgG1, V domains shown)
VH: EVQLLESGGGLVQPGGSLRLSCAASGFTFSGNAMSWVRQAPGKGLEWVSAISGSGDKTYYAASVKGRFTISRDNSNNTVYLQMNSLRAEDTAVYYCEKGAFRTTMDYWGQGTLVTVSS
notes: as for B12
For the molecule B14, the EC50 amounted to 0.066 µg/mL in [8], 0.08 µg/mL in assay [9], 0.004 µg/mL in assay [10] and 0.057 µg/mL in assay [13]. In addition, the “MAX(MFI)” value was determined as 1.55e+07 MFI in assay [8], 1.23e+06 MFI in [9], 1.07e+07 MFI in [13] and 935000 MFI in assay [7]. For the same molecule, the results for the 50% effective concentration (EC50 (read off the curve)) in assay [16], in [12] and in assay [15] were about 0.06 µg/mL, about 0.06 µg/mL and about 0.004 µg/mL, respectively. In addition, the binding result in assay [11] was “no binding (tested: about 15 µg/ml)”. For the same molecule, the affinity in assay [14], expressed as Kd, was 4.89 nM. This molecule came in with an off-rate (koff) in assay [14] of 0.00626 s⁻¹. This molecule also yielded a kon in assay [14] of 1.28e+06 M⁻¹ s⁻¹.
